# Experimental data published in the supplement of paper PMC5998384.
# Columns and labels:
# HeLa Kyoto [1] = experiment: solubility in G1/S (NP-40 vs SDS abundance) (log2 ratio); higher = more soluble; settings: cell cycle stage: G1/S
# HeLa Kyoto [2] = experiment: solubility change mitosis vs G1/S (difference of NP-40 vs SDS log2 ratios) (log2 ratio difference); higher = more soluble in mitosis
# 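For solubility change mitosis vs G1/S (difference of NP-40 vs SDS log2 ratios) in this document: synchronized HeLa Kyoto cells (double thymidine block for G1/S, nocodazole release for mitosis), protein amounts in NP-40 versus SDS lysates quantified by mass spectrometry, three biological replicates.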
# 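For solubility in G1/S (NP-40 vs SDS abundance) in this document: HeLa Kyoto cells arrested at G1/S by double thymidine block, proteins quantified by TMT10plex mass spectrometry in mild NP-40 versus SDS extracts, three biological replicates.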
Sequence,solubility in G1/S (log2) (HeLa Kyoto [1]),solubility change mitosis (log2) (HeLa Kyoto [2])
MAEHAPRRCCLGWDFSTQQVKVVAVDAELNVFYEESVHFDRDLPEFGTQGGVHVHKDGLTVTSPVLMWVQALDIILEKMKASGFDFSQVLALSGAGQQHGSIYWKAGAQQALTSLSPDLRLHQQLQDCFSISDCPVWMDSSTTAQCRQLEAAVGGAQALSCLTGSRAYERFTGNQIAKIYQQNPEAYSHTERISLVSSFAASLFLGSYSPIDYSDGSGMNLLQIQDKVWSQACLGACAPHLEEKLSPPVPSCSVVGAISSYYVQRYGFPPGCKVVAFTGDNPASLAGMRLEEGDIAVSLGTSDTLFLWLQEPMPALEGHIFCNPVDSQHYMALLCFKNGSLMREKIRNESVSRSWSDFSKALQSTEMGNGGNLGFYFDVMEITPEIIGRHRFNTENHKVAAFPGDVEVRALIEGQFMAKRIHAEGLGYRVMSKTKILATGGASHNREILQVLADVFDAPVYVIDTANSACVGSAYRAFHGLAGGTDVPFSEVVKLAPNPRLAATPSPGASQVYEALLPQYAKLEQRILSQTRGPPE [XYLB],-0.242,0.111
MAEKFDHLEEHLEKFVENIRQLGIIVSDFQPSSQAGLNQKLNFIVTGLQDIDKCRQQLHDITVPLEVFEYIDQGRNPQLYTKECLERALAKNEQVKGKIDTMKKFKSLLIQELSKVFPEDMAKYRSIRGEDHPPS [MED10],-0.142,0.446
MAELNTHVNVKEKIYAVRSVVPNKSNNEIVLVLQQFDFNVDKAVQAFVDGSAIQVLKEWNMTGKKKNNKRKRSKSKQHQGNKDAKDKVERPEAGPLQPQPPQIQNGPMNGCEKDSSSTDSANEKPALIPREKKISILEEPSKALRGVTEGNRLLQQKLSLDGNPKPIHGTTERSDGLQWSAEQPCNPSKPKAKTSPVKSNTPAAHLEIKPDELAKKRGPNIEKSVKDLQRCTVSLTRYRVMIKEEVDSSVKKIKAAFAELHNCIIDKEVSLMAEMDKVKEEAMEILTARQKKAEELKRLTDLASQMAEMQLAELRAEIKHFVSERKYDEELGKAARFSCDIEQLKAQIMLCGEITHPKNNYSSRTPCSSLLPLLNAHAATSGKQSNFSRKSSTHNKPSEGKAANPKMVSSLPSTADPSHQTMPANKQNGSSNQRRRFNPQYHNNRLNGPAKSQGSGNEAEPLGKGNSRHEHRRQPHNGFRPKNKGGAKNQEASLGMKTPEAPAHSEKPRRRQHAADTSEARPFRGSVGRVSQCNLCPTRIEVSTDAAVLSVPAVTLVA [SPATS2L],-1.29,1.14
MAEPLLRKTFSRLRGREKLPRKKSDAKERGHPAQRPEPSPPEPEPQAPEGSQAGAEGPSSPEASRSPARGAYLQSLEPSSRRWVLGGAKPAEDTSLGPGVPGTGEPAGEIWYNPIPEEDPRPPAPEPPGPQPGSAESEGLAPQGAAPASPPTKASRTKSPGPARRLSIKMKKLPELRRRLSLRGPRAGRERERAAPAGSVISRYHLDSSVGGPGPAAGPGGTRSPRAGYLSDGDSPERPAGPPSPTSFRPYEVGPAARAPPAALWGRLSLHLYGLGGLRPAPGATPRDLCCLLQVDGEARARTGPLRGGPDFLRLDHTFHLELEAARLLRALVLAWDPGVRRHRPCAQGTVLLPTVFRGCQAQQLAVRLEPQGLLYAKLTLSEQQEAPATAEPRVFGLPLPLLVERERPPGQVPLIIQKCVGQIERRGLRVVGLYRLCGSAAVKKELRDAFERDSAAVCLSEDLYPDINVITGILKDYLRELPTPLITQPLYKVVLEAMARDPPNRVPPTTEGTRGLLSCLPDVERATLTLLLDHLRLVSSFHAYNRMTPQNLAVCFGPVLLPARQAPTRPRARSSGPGLASAVDFKHHIEVLHYLLQSWPDPRLPRQSPDVAPYLRPKRQPPLHLPLADPEVVTRPRGRGGPESPPSNRYAGDWSVCGRDFLPCGRDFLSGPDYDHVTGSDSEDEDEEVGEPRVTGDFEDDFDAPFNPHLNLKDFDALILDLERELSKQINVCL [SYDE1],0.269,0.106
MAESSSESDHFRCRDRLSPWAARSTHRGTRSLPTVEVTEKVNTITSTLQDTSRNLRQVDQMLGRYREYSNGQAGAIEHLKESLEQSIDQLRSQRLLRNSGGRSISVTSLSASDLDGGTGSELHHFPPTSPLKDYGDPQGIKRMRSRTGVRFVQETDDMTQLHGFHQSLRDLSSEQIRLGDDFNRELSRRSRSDAETKRALEELTEKLNEAQKQEVVSDRVERRLQELEREMRTERELVERRQDQLGLMSLQLQEALKKQEAKADEHEGAIKNKLRQTETEKNQLEQELELSRRLLNQSEGSRETLLHQVEELRTQLTKAEGDRKGLQHQVSQISKQQSNYQDEQGEDWRFRRGVEREKQDLEKQMSDLRVQLNFSAMASELEEVKRCMERKDKEKAHLASQVENLTRELENGEKQQLQMLDRLKEIQNHFDTCEAERKHADLQISELTRHAEDATKQAERYLSELQQSEALKEEAEKRREDLKLKAQESIRQWKLKHKKLERALEKQSETVDELTGKNNQILKEKDELKTQLYAALQQIENLRKELNDVLTKRALQEEELHSKEEKLRDIKSHQADLELEVKNSLDTIHRLESELKKQSKIQSQMKVEKAHLEEEIAELKKSQAQDKAKLLEMQESIKDLSAIRADLANKLAEEERAKKAVLKDLSDLTAQAKSRDEETATIITQLKLERDVHQRELKDLTSSLQSVKTKHEQNIQELMKHFKKEKSEAENHIRTLKAESLEEKNMAKIHRGQLEKLKSQCDRLTEELTQNENENKKLKLKYQCLKDQLEEREKHISIEEEHLRRMEEARLQLKDQLLCLETEQESILGVIGKEIDAACKTFSKDSVEKLKVFSSGPDIHYDPHRWLAESKTKLQWLCEELKERENREKNLRHQLMLCRQQLRNLTENKESELQCLFQQIERQEQLLDEIHREKRDLLEETQRKDEEMGSLQDRVIALETSTQVALDHLESVPEKLSLLEDFKDFRDSCSSSERTDGRYSKYRVRRNSLQHHQDDTKYRTKSFKGDRTFLEGSHTRGLDHSSSWQDHSRFLSSPRFSYVNSFTKRTVAPDSASNKEDATMNGTSSQPKKEEYGS [CEP128],0.351,-0.182
MAGARRLELGEALALGSGWRHACHALLYAPDPGMLFGRIPLRYAILMQMRFDGRLGFPGGFVDTQDRSLEDGLNRELREELGEAAAAFRVERTDYRSSHVGSGPRVVAHFYAKRLTLEELLAVEAGATRAKDHGLEVLGLVRVPLYTLRDGVGGLPTFLENSFIGSAREQLLEALQDLGLLQSGSISGLKIPAHH [NUDT16],0.0531,-0.184
MAGPLRAPLLLLAILAVALAVSPAAGSSPGKPPRLVGGPMDASVEEEGVRRALDFAVGEYNKASNDMYHSRALQVVRARKQIVAGVNYFLDVELGRTTCTKTQPNLDNCPFHDQPHLKRKAFCSFQIYAVPWQGTMTLSKSTCQDA [CST3],-0.0401,0.378
MAGPQPLALQLEQLLNPRPSEADPEADPEEATAARVIDRFDEGEDGEGDFLVVGSIRKLASASLLDTDKRYCGKTTSRKAWNEDHWEQTLPGSSDEEISDEEGSGDEDSEGLGLEEYDEDDLGAAEEQECGDHRESKKSRSHSAKTPGFSVQSISDFEKFTKGMDDLGSSEEEEDEESGMEEGDDAEDSQGESEEDRAGDRNSEDDGVVMTFSSVKVSEEVEKGRAVKNQIALWDQLLEGRIKLQKALLTTNQLPQPDVFPLFKDKGGPEFSSALKNSHKALKALLRSLVGLQEELLFQYPDTRYLVDGTKPNAGSEEISSEDDELVEEKKQQRRRVPAKRKLEMEDYPSFMAKRFADFTVYRNRTLQKWHDKTKLASGKLGKGFGAFERSILTQIDHILMDKERLLRRTQTKRSVYRVLGKPEPAAQPVPESLPGEPEILPQAPANAHLKDLDEEIFDDDDFYHQLLRELIERKTSSLDPNDQVAMGRQWLAIQKLRSKIHKKVDRKASKGRKLRFHVLSKLLSFMAPIDHTTMNDDARTELYRSLFGQLHPPDEGHGD [AATF],-2.12,0.788
MAGYLKLVCVSFQRQGFHTVGSRCKNRTGAEHLWLTRHLRDPFVKAAKVESYRCRSAFKLLEVNERHQILRPGLRVLDCGAAPGAWSQVAVQKVNAAGTDPSSPVGFVLGVDLLHIFPLEGATFLCPADVTDPRTSQRILEVLPGRRADVILSDMAPNATGFRDLDHDRLISLCLTLLSVTPDILQPGGTFLCKTWAGSQSRRLQRRLTEEFQNVRIIKPEASRKESSEVYFLATQYHGRKGTVKQ [FTSJ2],0.00974,0.0979
MAHEAMEYDVQVQLNHAEQQPAPAGMASSQGGPALLQPVPADVVSSQGVPSILQPAPAEVISSQATPPLLQPAPQLSVDLTEVEVLGEDTVENINPRTSEQHRQGSDGNHTIPASSLHSMTNFISGLQRLHGMLEFLRPSSSNHSVGPMRTRRRVSASRRARAGGSQRTDSARLRAPLDAYFQVSRTQPDLPATTYDSETRNPVSEELQVSSSSDSDSDSSAEYGGVVDQAEESGAVILEEQLAGVSAEQEVTCIDGGKTLPKQPSPQKSEPLLPSASMDEEEGDTCTICLEQWTNAGDHRLSALRCGHLFGYRCISTWLKGQVRKCPQCNKKARHSDIVVLYARTLRALDTSEQERMKSSLLKEQMLRKQAELESAQCRLQLQVLTDKCTRLQRRVQDLQKLTSHQSQNLQQPRGSQAWVLSCSPSSQGQHKHKYHFQKTFTVSQAGNCRIMAYCDALSCLVISQPSPQASFLPGFGVKMLSTANMKSSQYIPMHGKQIRGLAFSSYLRGLLLSASLDNTIKLTSLETNTVVQTYNAGRPVWSCCWCLDEANYIYAGLANGSILVYDVRNTSSHVQELVAQKARCPLVSLSYMPRAASAAFPYGGVLAGTLEDASFWEQKMDFSHWPHVLPLEPGGCIDFQTENSSRHCLVTYRPDKNHTTIRSVLMEMSYRLDDTGNPICSCQPVHTFFGGPTCKLLTKNAIFQSPENDGNILVCTGDEAANSALLWDAASGSLLQDLQTDQPVLDICPFEVNRNSYLATLTEKMVHIYKWE [RFWD3],-0.0967,-0.0684
MAHLGPTPPPHSLNYKSEDRLSEQDWPAYFKVPCCGVDTSQIESEEAEVDVRERETQRDREPKRARDLTLRDSCTDNSMQFGTRTTTAEPGFMGTWQNADTNLLFRMSQQAIRCTLVNCTCECFQPGKINLRTCDQCKHGWVAHALDKLSTQHLYHPTQVEIVQSNVVFDISSLMLYGTQAVPVRLKILLDRLFSVLKQEEVLHILHGLGWTLRDYVRGYILQDAAGKVLDRWAIMSREEEIITLQQFLRFGETKSIVELMAIQEKEGQAVAVPSSKTDSDIRTFIESNNRTRSPSLLAHLENSNPSSIHHFENIPNSLAFLLPFQYINPVSAPLLGLPPNGLLLEQPGLRLREPSLSTQNEYNESSESEVSPTPYKNDQTPNRNALTSITNVEPKTEPACVSPIQNSAPVSDLTKTEHPKSSFRIHRMRRMGSASRKGRVFCNACGKTFYDKGTLKIHYNAVHLKIKHRCTIEGCNMVFSSLRSRNRHSANPNPRLHMPMLRNNRDKDLIRATSGAATPVIASTKSNLALTSPGRPPMGFTTPPLDPVLQNPLPSQLVFSGLKTVQPVPPFYRSLLTPGEMVSPPTSLPTSPIIPTSGTIEQHPPPPSEPVVPAVMMATHEPSADLAPKKKPRKSSMPVKIEKEIIDTADEFDDEDDDPNDGGAVVNDMSHDNHCHSQEEMSPGMSVKDFSKHNRTRCISRTEIRRADSMTSEDQEPERDYENESESSEPKLGEESMEGDEHIHSEVSEKVLMNSERPDENHSEPSHQDVIKVKEEFTDPTYDMFYMSQYGLYNGGGASMAALHESFTSSLNYGSPQKFSPEGDLCSSPDPKICYVCKKSFKSSYSVKLHYRNVHLKEMHVCTVAGCNAAFPSRRSRDRHSANINLHRKLLTKELDDMGLDSSQPSLSKDLRDEFLVKIYGAQHPMGLDVREDASSPAGTEDSHLNGYGRGMAEDYMVLDLSTTSSLQSSSSIHSSRESDAGSDEGILLDDIDGASDSGESAHKAEAPALPGSLGAEVSGSLMFSSLSGSNGGIMCNICHKMYSNKGTLRVHYKTVHLREMHKCKVPGCNMMFSSVRSRNRHSQNPNLHKNIPFTSVD [BNC2],-0.628,0.235
